{"source": "patent US20010039258A1", "about": "“Active agent transport systems” (Emisphere Technologies, Inc., priority 1990, published 2001)", "key": {"α-interferon [1]": {"biological_target": "T1, α-interferon (Homo sapiens, UniProt P01563)", "T1 construct": "purchased Schering Plough Corp", "T1 sequence (P01563 24-188)": "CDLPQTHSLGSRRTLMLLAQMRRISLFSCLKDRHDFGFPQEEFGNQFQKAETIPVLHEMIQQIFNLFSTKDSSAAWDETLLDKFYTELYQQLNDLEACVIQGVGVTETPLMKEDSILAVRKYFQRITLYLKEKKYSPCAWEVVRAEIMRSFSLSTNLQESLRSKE", "assay": "Isothermal titration calorimetry of perturbant complexing with α-interferon", "format": "binding", "conditions": "pH 7.2, 25° C.", "method": "Isothermal titration calorimetry of perturbant complexing with α-interferon was performed at 25° C. at two different pH's. The buffers used were 20 mM NaPhosphate for pH 7.2 and 20 mM NaAc for pH 3.0. α-interferon solution was dialyzed before the experiment to reach the appropriate pH. Dry perturbants were weighed and diluted in dialysate.\nITC was conducted on a MicroCal OMEGA titration calorimeter (MicroCal Inc.—Northampton, Mass.). Data points were collected every 2 seconds, without subsequent filtering. α-interferon solution placed in 1.3625 mL cell was titrated using a 250 μL syringe filled with concentrated perturbant solution. A certain amount of titrant was injected every 3-5 minutes for up to 55 injections.\nA reference experiment to correct for the heat of mixing of two solutions, was performed identically except that the reaction cell was filled with buffer without active agent.\nAnalysis of the data was performed using the software developed at the Johns Hopkins University Biocalorimetry Center.\nThe titration at pH 7.2 included 53 injections of 2 μL of the perturbant of Example 30 (50 mg/mL=191.6 mM (MW 261)) and α-interferon (1.3 mg/mL=0.067 mM (MW 19400)).\nThe titration at pH 7.2 included two runs of […] each of 5 μL of perturbant (50 mg/mL=181 mM (FW 277)) and α-interferon (2.31 mg/mL=0.119 mM, (MW 19400)).\nITC was performed according to the method of Example 24 with 40 injections of 5 μL of the perturbant benzoyl para-amino phenylbutyric acid (7.5 mg/mL=24.59 mM, (FW 305)) and α-interferon (2.5 mg/mL=0.129 mM, (MW 19400))."}, "α-interferon [2]": {"biological_target": "T1, α-interferon", "assay": "Isothermal titration calorimetry of perturbant complexing with α-interferon", "format": "binding", "conditions": "pH 7; read-out: apparent dissociation constant"}, "[3]": {"assay": "Solubility of perturbant under the DSC buffer conditions", "format": "physicochemical", "conditions": "room temperature; buffer conditions of the DSC (20 mM NaPhosphate pH 7.2)", "method": "(§1) Perturbant binding DSC was conducted using 20 mM NaPhosphate buffer at pH 7.2. Dry perturbant was weighed out to make perturbant stock solutions. α-interferon stock was diluted in the buffer. α-interferon solution was not dialyzed prior to experiments for the purpose of having the same active concentration for the whole set.\nDSC experiments were carried out according to the procedure of Example 19, with 0.5 mg/ml α-interferon mixed with (1) benzoyl para-amino phenylbutyric acid, (2) the perturbant of Example 22, or (3) the perturbant of Example 19.\nBenzoyl para-amino phenylbutyric acid was poorly soluble under the buffer conditions. Maximum concentration at which the solution was still transparent at room temperature was ˜8 mg/mL. Therefore, the concentrations of the perturbant used were 2, 4, and 6 mg/mL. Results are illustrate in FIGS. 17 and 18. The dashed line in FIG. 17 represents the linear least squares, and the regression equation is at the top of FIG. 17."}, "[4]": {"assay": "DSC of α-interferon, pH dependence", "format": "physicochemical", "method": "(§2) Scanning calorimetry was performed using 5 mg 0.83 mM porcine insulin (MW 6,000) per mL in 50 mM phosphate buffer, pH 7.5. All thermograms were performed on a Microcal MC-2 scanning calorimeter equipped with the DA2 data acquisition system operated in the upscale mode at 1° C./min (up to 90° C.), and data points were collected at 20 second intervals. All scans were initiated at least 20 degrees below the observed transitions for the active agent. All thermograms were corrected for baseline subtraction and normalized for the concentration of macromolecule. According to the methods of the Johns Hopkins Biocalorimetry Center, See, for example, Ramsay et al. Biochemistry (1990) 29:8677-8693; Schon et al. Biochemistry (1989) 28:5019-5024 (1990) 29: 781-788.\nα-interferon stock (9.1 mg/mL) was diluted with buffer to a concentration of 0.6 mg/mL. The sample was dialyzed overnight in buffer (volume ratio of α-interferon to buffer was 1:4000). Since there was no extinction coefficient provided, concentration of the sample used was determined by comparison of absorption spectra of the sample before and after dialysis. For each particular pH, the absorbance of the nondialyzed α-interferon of known concentration was measured at 280 nm. Then after dialysis, absorbance was read again to account for the protein loss, dilution, etc. Buffer conditions and α-interferon concentrations were:\npH 3.0: Buffer—20 mM NaAc. [IFN]=0.50 mg/mL;\npH 4.1: Buffer—20 mM NaAc. [IFN]=0.53 mg/mL;\npH 5.0: Buffer—20 mM NaAc. [IFN]=0.37 mg/mL;\npH 6.0: Buffer—20 mM Na Phosphate. [IFN]=0.37 mg/mL;\npH 7.2: Buffer—20 mM Na Phosphate. [IFN]=0.48 mg/mL.\nDSC scans were performed according to the procedure of Example 9. Although clear, transparent solutions of α-interferon were obtained for every pH at room temperature, there were noticeable signs of precipitation at pH 5.0 and 6.0 after the temperature scans."}, "α-interferon [5]": {"biological_target": "T1, α-interferon", "assay": "Perturbant binding DSC with α-interferon", "conditions": "perturbant 0 mg/ml; α-interferon 0.64 mg/ml; pH 7.2", "method": "as §1\nDSC thermograms were generated with α-interferon at a concentration of 0.64 mg/ml and a perturbant (phenylsulfonyl-para-aminobenzoic acid purified to >98% (as determined by reverse phase chromatography prior to generation of the spectra)) at perturbant concentrations of 5, 10, 25 and 100 mg/ml. DSC was conducted on a DASM-4 differential scanning calorimeter interfaced to an IBM PC for automatic collection of the data. The scanning rate was 60° C./h.\nThe method of Example 19 was followed substituting α-interferon without perturbant. Results are illustrated in Table 9 below and FIG. 10. […]"}, "[6]": {"assay": "DSC of α-interferon in GuHCl", "format": "physicochemical", "method": "GuHCl 5M stock solution was prepared using 20 mM sodium phosphate, pH 7.2 buffer. After dilution, the pH of the stock was checked and adjusted by concentrated HCl. To determine the concentration of final solution the refractive index referenced in Methods in Enzymology, Vol. 6, page 43 by Yasuhiko Nozaki was used.\nα-interferon stock (9.1 mg/mL) was mixed with sufficient amounts of GuHCl to yield the concentrations of Table 1A below:\nas §2\nGuHCL/α-interferon samples were prepared according to the method of Example 4. DSC scans were performed according to the procedure of Example 9."}, "[7]": {"biological_target": "salmon calcitonin (salmon) (UniProt P01263)", "sequence (P01263 83-114 limits assumed)": "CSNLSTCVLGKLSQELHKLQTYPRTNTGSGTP", "assay": "ITC, 30 C, pH 4.5; perturbant in syringe, sCt in cell"}, "[8]": {"biological_target": "salmon calcitonin (salmon) (UniProt P01263)", "assay": "ITC, 30 C, pH 4.5 (30 mM sodium acetate-30 mM NaCl); perturbant in syringe, sCt in cell"}, "[9]": {"biological_target": "salmon calcitonin (salmon) (UniProt P01263)", "assay": "ITC, 30 C, pH 6.6 (text: pH 6.5); perturbant in syringe, sCt in cell"}, "[10]": {"biological_target": "salmon calcitonin (salmon) (UniProt P01263)", "assay": "ITC, 30 C, pH 6.6 (text: pH 6.5, 30 mM Hepes-30 mM NaCl); perturbant in syringe, sCt in cell"}, "[11]": {"assay": "DSC of insulin with increasing guanidine hydrochloride", "format": "physicochemical", "method": "DSC was performed with […] insulin (0.83 mM assuming a molecular weight of 6,000) in 50 mM phosphate buffer, pH 7.5. Each subsequent thermogram was corrected by background subtraction of a 0.6M guanidine-phosphate buffer solution.\nInsulin was freshly prepared as a concentrated stock solution in 50 mM phosphate buffer, pH 7.5, and an appropriate aliquot was diluted in buffer, filtered though a 2 micron PTFE filter, and degassed for at least 20 minutes. The reference cell contained degassed buffer.\nas §2, with “781-788. […]” for “781-788.”"}, "[12]": {"assay": "DSC of insulin, effect of ionic strength", "format": "physicochemical", "conditions": "pH 7.5", "method": "as §2\nA sample containing 6 mg/mL insulin (0.83 mM in 50 mM phosphate buffer, pH 7.5, containing 0.25, 0.5, or 1.0M NaCl) was used. Thermograms were performed according to the procedure in Example 9 and were corrected by subtraction of a 0.5M NaCl-phosphate buffer blank as described above.\nThe effect of increasing ionic strength on structure was assessed in DSC experiments where individual solutions were prepared so as to contain NaCl at concentrations ranging from 0.25-3M."}}, "data": [{"compound": "O=C(O)CCCc1ccc(NC(=O)c2ccccc2)cc1", "note": "[benzoyl para-amino phenylbutyric acid]", "values": [{"measurement": "log 10 Ka (1), Ka=association constant", "setting": "α-interferon [1]", "value": 3.343}, {"measurement": "ΔH (1)", "setting": "α-interferon [1]", "value": 791.5726, "unit": "cal/Mole perturbant"}, {"measurement": "n (1), # of complexed perturbant molecules", "setting": "α-interferon [1]; curve fitting, multiple independent sites", "value": 23.7}, {"measurement": "Kd", "setting": "α-interferon [2]", "value": 100, "unit": "µM"}, {"measurement": "Maximum concentration at which the solution was still transparent", "setting": "[3]", "value": "≥ 8", "unit": "mg/mL"}]}, {"compound": "α-Interferon", "values": [{"measurement": "Tm", "setting": "[4]; pH 4.1", "value": 65.64, "unit": "°C"}, {"measurement": "ΔH", "setting": "[4]; pH 4.1", "value": 253.01, "unit": "kJ/mol"}, {"measurement": "Tm", "setting": "[4]; pH 5.0", "value": 67.32, "unit": "°C"}, {"measurement": "ΔH", "setting": "[4]; pH 5.0", "value": 291.97, "unit": "kJ/mol"}, {"measurement": "Tm", "setting": "[4]; pH 6.0", "value": 65.34, "unit": "°C"}, {"measurement": "ΔH", "setting": "[4]; pH 6.0", "value": 190.71, "unit": "kJ/mol"}, {"measurement": "Tm", "setting": "[4]; pH 7.2", "value": 66.84, "unit": "°C"}, {"measurement": "ΔH", "setting": "[4]; pH 7.2", "value": 3065.69, "unit": "kJ/mol"}, {"measurement": "Tm of α-interferon", "setting": "α-interferon [5]", "value": 67.12, "unit": "°C"}, {"measurement": "ΔH of α-interferon", "setting": "α-interferon [5]", "value": 303.6, "unit": "kJ/mol"}, {"measurement": "Tm", "setting": "[6]; [GuHCl] 0.0 M", "value": 67.12, "unit": "°C"}, {"measurement": "ΔH", "setting": "[6]; [GuHCl] 0.0 M", "value": 303.6, "unit": "kJ/mol"}, {"measurement": "Tm", "setting": "[6]; [GuHCl] 0.5 M", "value": 64.43, "unit": "°C"}, {"measurement": "ΔH", "setting": "[6]; [GuHCl] 0.5 M", "value": 212.66, "unit": "kJ/mol"}, {"measurement": "Tm", "setting": "[6]; [GuHCl] 1.0 M", "value": 63.04, "unit": "°C"}, {"measurement": "ΔH", "setting": "[6]; [GuHCl] 1.0 M", "value": 174.49, "unit": "kJ/mol"}, {"measurement": "Tm", "setting": "[6]; [GuHCl] 1.5 M", "value": 60.11, "unit": "°C"}, {"measurement": "ΔH", "setting": "[6]; [GuHCl] 1.5 M", "value": 123.51, "unit": "kJ/mol"}, {"measurement": "Tm", "setting": "[6]; [GuHCl] 2.0 M", "value": 56.32, "unit": "°C"}, {"measurement": "ΔH", "setting": "[6]; [GuHCl] 2.0 M", "value": 104.52, "unit": "kJ/mol"}, {"measurement": "Tm", "setting": "[6]; [GuHCl] 3.0 M", "value": 45.90, "unit": "°C"}, {"measurement": "ΔH", "setting": "[6]; [GuHCl] 3.0 M", "value": 86.094, "unit": "kJ/mol"}]}, {"compound": "thermal condensation product of glutamic acid, aspartic acid, tyrosine, and phenyl-alanine (Glu-Asp-Tye-Phe) fractionated through a 3000 molecular weight cut-off filter", "values": [{"measurement": "N", "setting": "[7]", "value": 0.8}, {"measurement": "delta H", "setting": "[7]", "value": 2.31, "unit": "kJ/mol"}, {"measurement": "delta S", "setting": "[7]", "value": 19.8, "unit": "cal/mol ° K"}, {"measurement": "Kd", "setting": "[8]", "value": 129, "unit": "µM"}, {"measurement": "N", "setting": "[9]", "value": 11.6}, {"measurement": "delta H", "setting": "[9]", "value": 1.16, "unit": "kJ/mol"}, {"measurement": "delta S", "setting": "[9]", "value": 38.3, "unit": "cal/mol ° K"}, {"measurement": "Kd", "setting": "[10]", "value": 0.00699, "unit": "µM"}]}, {"compound": "Insulin: porcine insulin (MW 6,000)", "values": [{"measurement": "Tm (Cp, max)", "setting": "[11]; 0.0 M GuHCl, 50 mM phosphate pH 7.5", "value": 78.3, "unit": "°C"}, {"measurement": "Tm (Cp, max)", "setting": "[11]; 0.5 M GuHCl, pH 7.5", "value": 79.3, "unit": "°C"}, {"measurement": "Tm (Cp, max)", "setting": "[11]; 1.0 M GuHCl, pH 7.5", "value": 77.5, "unit": "°C"}, {"measurement": "Tm (Cp, max)", "setting": "[11]; 2.0 M GuHCl, pH 7.5", "value": 69.7, "unit": "°C"}, {"measurement": "Tm (Cp, max)", "setting": "[11]; 3.0 M GuHCl, pH 7.5", "value": "no transition observed"}, {"measurement": "Tm (Cp, max)", "setting": "[12]; 0.0 M NaCl", "value": 78.3, "unit": "°C"}, {"measurement": "Tm (Cp, max)", "setting": "[12]; 0.25 M NaCl", "value": 80.7, "unit": "°C"}, {"measurement": "Tm (Cp, max)", "setting": "[12]; 0.5 M NaCl", "value": 80.7, "unit": "°C"}, {"measurement": "Tm (Cp, max)", "setting": "[12]; 1.0 M NaCl", "value": 80.7, "unit": "°C"}]}]}
